According to patent US20260199458A1 (INCENDIA THERAPEUTICS, published 2026):
Several values for one entry are separate records, joined by “and”; a condition that tells them apart may be missing. Equal values may be shown once.

Legend:
[1] = molecular target: T1, Human DDR1 extracellular domain (human, UniProt Q08345 21-417); experiment: Biacore, DDR1 extracellular domain
T1 construct: extracellular domain
Experimental: (§1) First, 9H-1 was tested for its affinity to DDR1 protein from human, mouse, rat, and cynomolgus monkey.

[2] = molecular target: T2, Mouse DDR1 extracellular domain (mouse, UniProt Q03146 22-415); experiment: Biacore, DDR1 extracellular domain
T2 construct: extracellular domain
T2 sequence (looked up): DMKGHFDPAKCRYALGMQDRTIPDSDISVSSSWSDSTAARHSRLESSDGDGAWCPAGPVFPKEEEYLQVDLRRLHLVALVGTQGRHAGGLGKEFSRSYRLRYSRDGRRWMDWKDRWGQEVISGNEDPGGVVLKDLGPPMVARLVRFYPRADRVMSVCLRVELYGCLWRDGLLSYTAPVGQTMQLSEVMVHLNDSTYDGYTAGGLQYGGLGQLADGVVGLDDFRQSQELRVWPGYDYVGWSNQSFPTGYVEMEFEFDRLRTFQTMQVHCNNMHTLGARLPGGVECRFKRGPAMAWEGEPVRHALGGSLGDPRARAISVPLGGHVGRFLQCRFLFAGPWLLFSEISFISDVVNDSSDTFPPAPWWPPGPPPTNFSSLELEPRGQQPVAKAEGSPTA
Experimental: as §1

[3] = molecular target: T3, Rat DDR1 extracellular domain (rat, UniProt Q63474 22-414); experiment: Biacore, DDR1 extracellular domain
T3 construct: extracellular domain
T3 sequence (looked up): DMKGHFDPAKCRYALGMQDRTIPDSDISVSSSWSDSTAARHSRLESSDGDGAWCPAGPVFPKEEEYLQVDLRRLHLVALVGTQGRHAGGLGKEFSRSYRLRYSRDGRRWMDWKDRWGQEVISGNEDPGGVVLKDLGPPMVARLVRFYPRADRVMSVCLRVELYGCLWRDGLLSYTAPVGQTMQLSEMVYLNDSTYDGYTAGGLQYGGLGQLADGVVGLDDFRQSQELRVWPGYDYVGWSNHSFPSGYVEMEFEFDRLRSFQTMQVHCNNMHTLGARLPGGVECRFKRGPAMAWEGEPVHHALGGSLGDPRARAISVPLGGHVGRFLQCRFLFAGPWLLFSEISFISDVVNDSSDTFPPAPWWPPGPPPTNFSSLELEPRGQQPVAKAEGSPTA
Experimental: as §1

[4] = molecular target: T4, Cynomolgus monkey DDR1 extracellular domain (cynomolgus monkey, UniProt A0A2K5V739 47-443); experiment: Biacore, DDR1 extracellular domain
T4 construct: extracellular domain; also called Cyno DDR1
T4 sequence: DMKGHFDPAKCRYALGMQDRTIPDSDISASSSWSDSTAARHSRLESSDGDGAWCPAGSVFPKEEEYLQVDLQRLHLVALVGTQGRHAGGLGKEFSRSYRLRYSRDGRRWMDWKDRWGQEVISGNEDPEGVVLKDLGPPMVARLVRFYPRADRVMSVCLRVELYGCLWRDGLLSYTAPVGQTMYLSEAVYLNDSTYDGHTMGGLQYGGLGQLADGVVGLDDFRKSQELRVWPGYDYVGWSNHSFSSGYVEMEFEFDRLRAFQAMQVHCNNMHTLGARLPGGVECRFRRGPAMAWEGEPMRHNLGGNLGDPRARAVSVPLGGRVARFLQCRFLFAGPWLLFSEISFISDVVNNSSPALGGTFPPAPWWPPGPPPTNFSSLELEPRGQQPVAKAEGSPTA
Experimental: as §1

[5] = molecular target: T1, Human DDR1 extracellular domain; experiment: Biacore, DDR1 extracellular domain; KD in mass units (ng/mL), same fit as the 1.36 nM of r7c2
Experimental: as §1

Kd [1]: 1.36 nM
koff [1]: 0.000181 s⁻¹
kon [1]: 133000 M⁻¹ s⁻¹
t1/2 [1]: 64 min
Kd [2]: 16.9 nM and 2.54 µg/mL
koff [2]: 0.00397 s⁻¹
kon [2]: 235000 M⁻¹ s⁻¹
t1/2 [2]: 2.9 min
Kd [3]: 2.28 nM and 0.342 µg/mL
koff [3]: 0.000455 s⁻¹
kon [3]: 199000 M⁻¹ s⁻¹
t1/2 [3]: 25.3 min
Kd [4]: 1.3 nM and 0.195 µg/mL
koff [4]: 0.00015 s⁻¹
kon [4]: 116000 M⁻¹ s⁻¹
t1/2 [4]: 77 min
Kd [5]: 0.204 µg/mL
B1: 9H-1 (humanized DDR1-9, WT IgG1 Fc) (antibody, V domains shown)
VH: QVQLVESGGRVVQPGRSLRLSCTASGFSLNRYYMLWVRQAPGKGLEWIGTISYGDTTYYASWAKGRFTISRDNSKNTLYLQMNSLRAEDTAVYYCARADTGDNGYLGLQLWGQGTLVTVSS
VL: DIQMTQSPSSVSASVGDRVTITCQASQSIGSVLAWYQQKPGKAPKLLISGVFDLASGVPSRFSGSGSGTDFTLTISSLQPEDFATYYCQYIPYGSSPFGGGTKVEIKR
notes: In some embodiments the heavy chain lacks the terminal lysine; also called PRTH-101; humanized DDR1-9 (9H-1)_1 WT IgG1 Fc
